Reference: the RNAGym collection of RNA variant scans (doi:10.7554/elife.80360)

B1: CPEB3 Ribozyme (parent)
chain: GGGGGCCACAGCAGAAGCGUUCACGUCGCGGCCCCUGUCAGAUUCUGGUGAAUCUGCGAAUUCUGCUGU

Variants of: B1
Assay: self-cleavage, relative activity (ratio to wild type); higher = more cleavage; co-transcriptional
In the case of GGGGGCCACAGCAGAAGCGUUCACGUCGCGGCCCCUGUCAGAUUCUGGUGAAUCUGCUAAAUCUGCUGU [G58U U61A], the self-cleavage is reported as 0.929.
GGGGGCCACAGCAGAAGCGUUCACGUCGCGGCCCCUGUCAGAUUCUGGUGAAUCUGCGCAUUCCGCUGU [A59C U64C] showed a self-cleavage of 0.586.
In the case of GGGGGCCACAGCAGAAGCGUUCACGUCGCGGCCCCUGUCAGAUUCUGGUGAAUCUGCGCAUUGUGCUGU [A59C C63G], the self-cleavage is reported as 0.316.
In the case of GGGGGCCACAGCAGAAGCGUUCACGUCGCGGCCCCUGUCAGAUUCUGGUGAAUCUGCGCAUUUUGCUGU [A59C C63U], the self-cleavage is reported as 0.633.
GGGGGCCACAGCAGAAGCGUUCACGUCGCGGCCCCUGUCAGAUUCUGGUGAAUCUGCCAUUUCUGCUGU [G58C A60U] showed a self-cleavage of 0.402.
For GGGGGCCACAGCAGAAGCGUUCACGUCGCGGCCCCUGUCAGAUUCUGGUGAAUCUGCGCAUACUGCUGU [A59C U62A], the self-cleavage was 0.406.
GGGGGCCACAGCAGAAGCGUUCACGUCGCGGCCCCUGUCAGAUUCUGGUGAAUCUGCGACUUAUGCUGU [A60C C63A] showed a self-cleavage of 0.405.
Variant GGGGGCCACAGCAGAAGCGUUCACGUCGCGGCCCCUGUCAGAUUCUGGUGAAUCUGCGGAAUCUGCUGU [A59G U61A] has a self-cleavage of 0.916.
With GGGGGCCACAGCAGAAGCGUUCACGUCGCGGCCCCUGUCAGAUUCUGGUGAAUCUGCGGAGUCUGCUGU [A59G U61G] the self-cleavage was 0.941.
Work on GGGGGCCACAGCAGAAGCGUUCACGUCGCGGCCCCUGUCAGAUUCUGGUGAAUCUGCGACUUCUGCUGU [A60C] yielded a self-cleavage of 0.359.
GGGGGCCACAGCAGAAGCGUUCACGUCGCGGCCCCUGUCAGAUUCUGGUGAAUCUGCGAGUUCUGCUGU [A60G] showed a self-cleavage of 0.954.
Variant GGGGGCCACAGCAGAAGCGUUCACGUCGCGGCCCCUGUCAGAUUCUGGUGAAUCUGCGUAUUCUGCUGU [A59U] has a self-cleavage of 0.854.
Variant GGGGGCCACAGCAGAAGCGUUCACGUCGCGGCCCCUGUCAGAUUCUGGUGAAUCUGCGCAUUCUGCUGU [A59C] has a self-cleavage of 0.788.
GGGGGCCACAGCAGAAGCGUUCACGUCGCGGCCCCUGUCAGAUUCUGGUGAAUCUGCGGAUUCUGCUGU [A59G] showed a self-cleavage of 0.997.
Variant GGGGGCCACAGCAGAAGCGUUCACGUCGCGGCCCCUGUCAGAUUCUGGUGAAUCUGCGCAUUCUGUUGU [A59C C66U] has a self-cleavage of 0.727.
With GGGGGCCACAGCAGAAGCGUUCACGUCGCGGCCCCUGUCAGAUUCUGGUGAAUCUGCGGAUUCGGCUGU [A59G U64G] the self-cleavage was 0.835.
Variant GGGGGCCACAGCAGAAGCGUUCACGUCGCGGCCCCUGUCAGAUUCUGGUGAAUCUGCUAAUUAUGCUGU [G58U C63A] has a self-cleavage of 0.951.
In the case of GGGGGCCACAGCAGAAGCGUUCACGUCGCGGCCCCUGUCAGAUUCUGGUGAAUCUGCCAAUUCUCCUGU [G58C G65C], the self-cleavage is reported as 0.703.
With GGGGGCCACAGCAGAAGCGUUCACGUCGCGGCCCCUGUCAGAUUCUGGUGAAUCUGCAAAUUCGGCUGU [G58A U64G] the self-cleavage was 0.955.
GGGGGCCACAGCAGAAGCGUUCACGUCGCGGCCCCUGUCAGAUUCUGGUGAAUCUGCGUAUUCUGCUAU [A59U G68A] showed a self-cleavage of 0.957.
Variant GGGGGCCACAGCAGAAGCGUUCACGUCGCGGCCCCUGUCAGAUUCUGGUGAAUCUGCGUAUUCUGCUUU [A59U G68U] has a self-cleavage of 0.924.
With GGGGGCCACAGCAGAAGCGUUCACGUCGCGGCCCCUGUCAGAUUCUGGUGAAUCUGCUAAUUCUGCUGA [G58U U69A] the self-cleavage was 1.02.
Work on GGGGGCCACAGCAGAAGCGUUCACGUCGCGGCCCCUGUCAGAUUCUGGUGAAUCUGCUAAUUCUGCUGC [G58U U69C] yielded a self-cleavage of 1.06.
GGGGGCCACAGCAGAAGCGUUCACGUCGCGGCCCCUGUCAGAUUCUGGUGAAUCUGCGCAUUCUGCUCU [A59C G68C] gave a self-cleavage of 0.909.
GGGGGCCACAGCAGAAGCGUUCACGUCGCGGCCCCUGUCAGAUUCUGGUGAAUCUGCCAAUUCUGCUGC [G58C U69C] showed a self-cleavage of 1.07.
Variant GGGGGCCACAGCAGAAGCGUUCACGUCGCGGCCCCUGUCAGAUUCUGGUGAAUCUGCGACUUCUGCUAU [A60C G68A] has a self-cleavage of 0.454.
With GGGGGCCACAGCAGAAGCGUUCACGUCGCGGCCCCUGUCAGAUUCUGGUGAAUCUGCAAAUUCUGCGGU [G58A U67G] the self-cleavage was 0.988.
GGGGGCCACAGCAGAAGCGUUCACGUCGCGGCCCCUGUCAGAUUCUGGUGAAUCUGCCAACUCUGCUGU [G58C U61C] gave a self-cleavage of 0.844.
In the case of GGGGGCCACAGCAGAAGCGUUCACGUCGCGGCCCCUGUCAGAUUCUGGUGAAUCUGCAAAUGCUGCUGU [G58A U62G], the self-cleavage is reported as 0.884.
In the case of GGGGGCCACAGCAGAAGCGUUCACGUCGCGGCCCCUGUCAGAUUCUGGUGAAUCUGCGAGUUCCGCUGU [A60G U64C], the self-cleavage is reported as 0.491.
For GGGGGCCACAGCAGAAGCGUUCACGUCGCGGCCCCUGUCAGAUUCUGGUGAAUCUGCGAGUUCAGCUGU [A60G U64A], the self-cleavage was 0.493.
For GGGGGCCACAGCAGAAGCGUUCACGUCGCGGCCCCUGUCAGAUUCUGGUGAAUCUGCGAGUUCGGCUGU [A60G U64G], the self-cleavage was 0.493.
With GGGGGCCACAGCAGAAGCGUUCACGUCGCGGCCCCUGUCAGAUUCUGGUGAAUCUGCGGAUUCUGCUCU [A59G G68C] the self-cleavage was 1.02.
Variant GGGGGCCACAGCAGAAGCGUUCACGUCGCGGCCCCUGUCAGAUUCUGGUGAAUCUGCUGAUUCUGCUGU [G58U A59G] has a self-cleavage of 1.02.
GGGGGCCACAGCAGAAGCGUUCACGUCGCGGCCCCUGUCAGAUUCUGGUGAAUCUGCGUAUUAUGCUGU [A59U C63A] showed a self-cleavage of 0.377.
In the case of GGGGGCCACAGCAGAAGCGUUCACGUCGCGGCCCCUGUCAGAUUCUGGUGAAUCUGCGGAUUCUGUUGU [A59G C66U], the self-cleavage is reported as 0.979.
Variant GGGGGCCACAGCAGAAGCGUUCACGUCGCGGCCCCUGUCAGAUUCUGGUGAAUCUGCUACUUCUGCUGU [G58U A60C] has a self-cleavage of 0.372.
GGGGGCCACAGCAGAAGCGUUCACGUCGCGGCCCCUGUCAGAUUCUGGUGAAUCUGCGUAUUCUGAUGU [A59U C66A] gave a self-cleavage of 0.503.
GGGGGCCACAGCAGAAGCGUUCACGUCGCGGCCCCUGUCAGAUUCUGGUGAAUCUGCGUAUUCUGGUGU [A59U C66G] gave a self-cleavage of 0.592.
